What is called Km is the substrate concentration at which the rate is half of its maximum.

Substrate in the data set: CC(=O)N[C@H]1[C@H](Oc2ccc([N+](=O)[O-])cc2)O[C@H](CO)[C@@H](O)[C@@H]1O
In words: 4-nitrophenyl substrate hydrolysis assay. The settings on record: substrate concentrations around Km. It is filed as biochemical, Aspergillus oryzae.

B1: β-N-acetylhexosaminidase (native form) (Aspergillus oryzae) (protein)
chain 1: VGVNPLPAPREISWGSSGPKSIAGELQLRTDSDSADGIVADAWNRAWETIVALRWVPAATEAPISSFEPFPTPTAGAS
chain 2: ASNSLQYVNVQVKDIEADLQHGVDESYTLDVEEDSDTITINAETVWGALHAFTTLQQLVISDGHGGLIIEEPVNIKDSPLYPYRGIMLDTGRNFVSLPKIFEQLEGMSLSKLNVLHWHIDDAQSWPIWVDVYPEMVKDAYSPHEIYSRNDVRNIVNYARARGIRVIPEIDMPSHSSSGWKQVDPEMVTCTDSWWSNDDWPLHTAVEPNPGQLDIIYNKTYEVVGNVYKELSDIFPDHWFHVGGDEIQPNCFNFSTHVTKWFAEDPSRTYHDLAQYWVDHAVPIFQNYSQERRLVMWEDIALSADNAHDVPKNIVMQSWNNGLEYISNLTARGYDVIVSSSDFLYLDCGHGGFVTNDPRYNVMANPDANTPNFNYGGNGGSWCAPYKTWQRIYDYDFTLNLTETQAKHIIGATAPLWGEQVDDINVSSMFWPRAAALAELVWSGNRDANGNKRTTEMTQRILNFREYLVANGVQAQALVPKYCLQHPHACDLYRNQAAIQ
notes: native enzyme purified from culture medium of A. oryzae; secreted, fully N-glycosylated (six sites), dimer; GH20
In the case of B1, for the setting “native N-glycosylated form”, the Km was 0.45 mM.

B2: deglycosylated β-N-acetylhexosaminidase (Aspergillus oryzae) (protein)
chain 1: B1 chain 1
chain 2: B1 chain 2
notes: same polypeptide as P1, native purification, enzymatically N-deglycosylated under native conditions (endoglycosidase H, leaving core GlcNAc, or N-glycanase)
For B2, the Km (deglycosylated form) is on record as 0.71 mM.

For the origin of these results see article PMC1885261, “Structure of the dimeric N-glycosylated form of fungal β-N-acetylhexosaminidase revealed by computer modeling, vibrational spectroscopy, and biochemical studies” (BMC Structural Biology, 2007).
